Test results reported in patent publication US20100273704A1.

target: BCL-XL ΔC [GST: P08515]; experiment: fluorescence polarization

First: BAD SAHBA
Second: BAD SAHBA(L,D→A)
The EC50 of the first is 8.3-fold lower: 0.0402 µM for the first, 0.333 µM for the second.

Compared with BAD SAHBA(S→D), BID SAHBA is lower in EC50: greater than 10 µM for the first, 0.0353 µM for the second. The second is the more potent here.
